Reference: US8633250B2, “Cell repair and regeneration by suramin and related polysulfonated napthylureas” (MUSC Foundation for Research Development, priority 2006, dated 2014)

How the values were obtained:
Type in all cases: cell-based, rabbit
[1] = tested on: renal proximal tubule cells (RPTC); test: RPTC outgrowth from plated renal proximal tubules (photographs); conditions: after 24 hr exposed for 24 hr, 50 μM suramin, 10 ng/ml EGF or suramin+EGF
Experimental: (§1) Isolation and culture of renal proximal tubules: Isolation and culture of renal proximal tubules were performed as described previously (Rodeheaver et al., 1990; Nowak and Schnellmann, 1995; Nowak and Schnellmann, 1996). Female New Zealand White rabbits (1.5-2.5 kg) were purchased from Myrtle's Rabbitry (Thompson Station, Tenn.). RPTC were isolated using the iron oxide perfusion method and grown in 6-well tissue culture dishes under improved conditions. The culture medium was an 1:1 mixture of DMEM/Ham's F-12 (without glucose, phenol red, or sodium pyruvate) supplemented with 15 mM HEPES buffer, 2.5 mM L-glutamine, 1 μM pyridoxine HCl, 15 mM sodium bicarbonate, and 6 mM lactate. Hydrocortisone (50 μM), selenium (5 ng/ml), human transferrin (5 μg/ml) bovine insulin (10 nM) and L-ascorbic acid-2-phosphate (50 μM) were added daily to fresh culture medium.
(§2) Isolated tubules were plated at 1 mg protein/well in a 6-well plate. On day 2, RPTC were incubated in the presence and absence of various pharmacological inhibitors for different time periods as indicated in the figure legends. For some experiments, suramin was added to RPTC on day 3 and then incubated for 24 hr in the presence or absence of various inhibitors before samples were taken.

[2] = tested on: renal proximal tubule cells (RPTC); test: Cell cycle analysis by flow cytometry: number of RPTC in S-phase; conditions: 24 hr treatment, four days following plating; suramin 50 μM, EGF 10 ng/ml; untreated approximately 20%
Experimental: as §1
Isolated tubules were plated at 1 mg protein/well in a 6-well plate. On day 2, RPTC were incubated in the presence and absence of various pharmacological inhibitors for different time periods as indicated in the figure legends. […]
Cell cycle analysis: Cell cycle phase was determined using flow cytometry as previously described (Zhuang et al., 2004). Cells were harvested, stained with propidium iodide and the number of cells in S-phase of cell cycle determined.

[3] = tested on: renal proximal tubule cells (RPTC); test: RPTC scattering, fibroblast-like morphology and lamellipodia (bright field, phalloidin staining); conditions: 50 μM suramin or 10 ng/ml EGF, 24 hr, phalloidin staining
Experimental: as §1, §2
Immunocytochemistry: After various treatments, RPTC were fixed with 10% buffered formalin, washed, permeabilized, and blocked with BSA. […]

[4] = tested on: EGF receptor; test: Immunoblot of EGF receptor phosphorylation (Tyr1068) in RPTC; conditions: 50 μM suramin, 10 ng/ml EGF or both for 10 min
Experimental: Preparation of cell lysates and immunoblot analysis: After different treatments, RPTC were washed twice with PBS and harvested in lysis buffer (0.25 M Tris-HCl, pH 6.8, 4% SDS, 10% glycerol, 1 mg/ml bromophenol blue, and 0.5% 2-mercaptoethanol). Cells were disrupted by sonication for 15 seconds and lysates stored at −20 °C. Equal amounts of cellular protein lysate were separated on 10% polyacrylamide gels and transferred to nitrocellulose membranes. After treatment with 5% skim milk at 4 °C overnight, membranes were incubated with various antibodies for 1 hr, and then incubated with an appropriate horseradish-peroxidase conjugated secondary antibody (Amersham, Piscataway, N.J.). Bound antibodies were visualized following chemiluminescence detection on autoradiographic film.
To determine whether suramin caused EGF receptor activation, we performed immunoblot analysis using an antibody against phosphorylated tyrosine 1068 of the EGF receptor. Total EGF receptor content was measured using immunoblot analysis and an antibody that recognizes the EGF receptor independent of its phosphorylation state to control for gel loading. […] Thus, suramin induced RPTC proliferation and scattering is not through the EGF receptor.

EGF receptor phosphorylation (tyrosine 1068) [4]: did observe phosphorylated EGF receptor
B1: EGF: Human recombinant EGF (epidermal growth factor) from R & D systems (protein, UniProt P01133 23-1207, looked up)
Pro-epidermal growth factor: PQHWSCPEGTLAGNGNSTCVGPAPFLIFSHGNSIFRIDTEGTNYEQLVVDAGVSVIMDFHYNEKRIYWVDLERQLLQRVFLNGSRQERVCNIEKNVSGMAINWINEEVIWSNQQEGIITVTDMKGNNSHILLSALKYPANVAVDPVERFIFWSSEVAGSLYRADLDGVGVKALLETSEKITAVSLDVLDKRLFWIQYNREGSNSLICSCDYDGGSVHISKHPTQHNLFAMSLFGDRIFYSTWKMKTIWIANKHTGKDMVRINLHSSFVPLGELKVVHPLAQPKAEDDTWEPEQKLCKLRKGNCSSTVCGQDLQSHLCMCAEGYALSRDRKYCEDVNECAFWNHGCTLGCKNTPGSYYCTCPVGFVLLPDGKRCHQLVSCPRNVSECSHDCVLTSEGPLCFCPEGSVLERDGKTCSGCSSPDNGGCSQLCVPLSPVSWECDCFPGYDLQLDEKSCAASGPQPFLLFANSQDIRHMHFDGTDYGTLLSQQMGMVYALDHDPVENKIYFAHTALKWIERANMDGSQRERLIEEGVDVPEGLAVDWIGRRFYWTDRGKSLIGRSDLNGKRSKIITKENISQPRGIAVHPMAKRLFWTDTGINPRIESSSLQGLGRLVIASSDLIWPSGITIDFLTDKLYWCDAKQSVIEMANLDGSKRRRLTQNDVGHPFAVAVFEDYVWFSDWAMPSVMRVNKRTGKDRVRLQGSMLKPSSLVVVHPLAKPGADPCLYQNGGCEHICKKRLGTAWCSCREGFMKASDGKTCLALDGHQLLAGGEVDLKNQVTPLDILSKTRVSEDNITESQHMLVAEIMVSDQDDCAPVGCSMYARCISEGEDATCQCLKGFAGDGKLCSDIDECEMGVPVCPPASSKCINTEGGYVCRCSEGYQGDGIHCLDIDECQLGEHSCGENASCTNTEGGYTCMCAGRLSEPGLICPDSTPPPHLREDDHHYSVRNSDSECPLSHDGYCLHDGVCMYIEALDKYACNCVVGYIGERCQYRDLKWWELRHAGHGQQQKVIVVAVCVVVLVMLLLLSLWGAHYYRTQKLLSKNPKNPYEESSRDVRSRRPADTEDGMSSCPQPWFVVIKEHQDLKNGGQPVAGEDGQAADGSMQPTSWRQEPQLCGMGTEQGCWIPVSSDKGSCPQVMERSFHMPSYGTQTLEGGVEKPHSLLSANPLWQQRALDPPHQMELTQ
modifications: Pro-epidermal growth factor
notes: Human recombinant EGF (epidermal growth factor) from R & D systems
RPTC outgrowth [1]: promoted RPTC outgrowth | RPTC in S-phase [2]: 32% | formation of lamellipodia and intercellular contacts [3]: increased the formation of lamellipodia and decreased intercellular contacts
